Reference: PMC3493562
Where “and” joins values, the source holds several entries; their conditions need not be identical. Identical values can stand only once. Like-named read-outs stand apart in the source and are kept apart here.

What was measured:
[1] = molecular target: amyloid β peptide (Aβ) of the TBS-soluble fraction of human Alzheimer's disease brain (human (endogenous in brain)); test: SDS-PAGE and immunoblot
[2] = molecular target: amyloid β peptide (Aβ) of the TBS-soluble fraction of human Alzheimer's disease brain (human (endogenous in brain)); test: SEC
[3] = molecular target: split-luciferase tagged Aβ; test: split reporter
[4] = molecular target: split-luciferase tagged Aβ; test: SEC + split reporter
[5] = molecular target: split-luciferase tagged Aβ; test: split reporter; remark: listed apart in the source
[6] = molecular target: split-luciferase tagged Aβ; test: split reporter; remark: listed apart in the source
split reporter = split reporter (BiFC, NanoBiT)

## amyloid β peptide (Aβ) of the TBS-soluble fraction of human Alzheimer's disease brain
[1]
  stoichiometry N: 2
SEC
  percent of LMW Aβ eluting in the HMW Aβ fraction after incubation without apoE: 0.5 ± 0.7 without apoE
[2]
  stoichiometry N: 2 and 3

## split-luciferase tagged Aβ (peptide)
[3]
  luminescence (%) after incubation with fraction 8 of APOEε3/ε3 AD brains: 168%
  luminescence (%) after incubation with fraction 8 of APOEε4/ε4 AD brains: 193%
  luminescence of cell lysate (%) with apoA-II co-expressed: 100%
  luminescence of cell lysate (%) with apoE2 co-expressed: 89.9%
  luminescence of cell lysate (%) with apoE3 co-expressed: 96.4%
  luminescence of cell lysate (%) with apoE4 co-expressed: 92.5%
  luminescence of conditioned medium (% of control) with apoA-I co-expressed: 132%
  luminescence of conditioned medium (% of control) with apoA-II co-expressed: 89.3%
  luminescence of conditioned medium (% of control) with apoE3 co-expressed: 279%
  luminescence of conditioned medium (%) with apoA-II co-expressed: 101%
  luminescence of conditioned medium (%) with apoE3 co-expressed: 229%
  luminescence of conditioned medium (%) with apoE4 R61T co-expressed: 228%
  luminescence of conditioned medium (%) with apoE4 co-expressed: 261%
[4]
  stoichiometry N: 2
[5]
  luminescence of conditioned medium (% of control) with apoA-II co-expressed: 91.7%
  luminescence of conditioned medium (% of control) with apoE3 NTF co-expressed: 113%
  luminescence of conditioned medium (% of control) with apoE3 co-expressed: 274%
  luminescence of conditioned medium (% of control) with apoE 192-242 co-expressed: 142%
  luminescence of conditioned medium (% of control) with apoE 192-272 co-expressed: 185%
  luminescence of conditioned medium (% of control) with apoE 231-299 co-expressed: 223%
  luminescence of conditioned medium (% of control) with apoE 243-299 co-expressed: 235%
  luminescence of conditioned medium (% of control) with apoE CTF co-expressed: 239%
[6]
  luminescence of conditioned medium (% of control) with apoE3 NTF co-expressed: 114%
  luminescence of conditioned medium (% of control) with apoE3 co-expressed: 218%
  luminescence of conditioned medium (% of control) with apoE CTF co-expressed: 206%

## split-luciferase tagged Aβ
Split reporter
  luminescence (%) after incubation with SEC fraction 6 of AD brain: 141.8% in AD fraction 6
  luminescence (%) after incubation with SEC fraction 6 of control brain: 99.8% in control fraction 6
  luminescence (%) after incubation with SEC fraction 7 of AD brain: 198.4% in AD fraction 7
  luminescence (%) after incubation with SEC fraction 7 of control brain: 163.2% in control fraction 7
  luminescence (%) after incubation with SEC fraction 8 of AD brain: 256.4% in AD fraction 8
  luminescence (%) after incubation with SEC fraction 8 of control brain: 230.8% in control fraction 8
  luminescence (%) after incubation with SEC fraction 9 of AD brain: 207.6% in AD fraction 9
  luminescence (%) after incubation with SEC fraction 9 of control brain: 202.6% in control fraction 9
